Data on one protein can be found in PMC9307952, “Lipoate protein ligase B primarily recognizes the C8-phosphopantetheine arm of its donor substrate and weakly binds the acyl carrier protein” (The Journal of Biological Chemistry, 2022).

Substrate in the data set: CCCCCCCC(=O)SCCNC(=O)CCNC(=O)[C@H](O)C(C)(C)COP(=O)(O)OP(=O)(O)OC[C@H]1O[C@@H](n2cnc3c(N)ncnc32)[C@H](O)[C@@H]1OP(=O)(O)O
Kind of data set: purified protein. Particulars: 5 μM LipB, 25 μM E. coli GcvH as acceptor, 0-160 μM C8-CoA, 50 mM Tris-HCl, 200 mM NaCl, pH 8.0, 30 °C.

B1: E. coli LipB (EcLipB) (Escherichia coli K-12) (protein)
chain: MYQDKILVRQLGLQPYEPISQAMHEFTDTRDDSTLDEIWLVEHYPVFTQGQAGKAEHILMPGDIPVIQSDRGGQVTYHGPGQQVMYVLLNLKRRKLGVRELVTLLEQTVVNTLAELGIEAHPRADAPGVYVGEKKICSLGLRIRRGCSFHGLALNVNMDLSPFLRINPCGYAGMEMAKISQWKPEATTNNIAPRLLENILALLNNPDFEYITA
As usually defined, the Km is the substrate concentration at which the rate is half of its maximum. Usually Vmax stands for the top rate of the reaction or transport when substrate is in excess. What is called kcat is the number of substrate molecules converted per active site and unit of time at saturation. For B1, the Km was 12.24 ± 0.79 µM, the maximal velocity (Vmax) came to 1.08 µmol/min and the kcat stood at 0.00367 s⁻¹.
